# From patent publication US20220213198A1, “METHOD OF TREATMENT” (The Council of the Queensland Institute of Medical Research, priority 2019, published 2022)
# B1: 8F2.F9: anti-MR1 blocking antibody from hybridoma clone 8F2.F9, IgG1 isotype; heavy chain SEQ ID NO: 14, light chain SEQ ID NO: 18 (antibody, listed as Mus musculus, V domains shown)
# VH: MKFSWVIFFLMAVVTGVNSEVQLQQSVAELVRPGASVKLSCTASGFNIKNTYMHWVKKRPELGLEWIGRIDPANGNTNFAPKFQGKATITADTSSNTAYLQLSSLTSEDTAIYYCPRGSGNYYFDYWGQGTTLTVSS
# VL: MSSAQFLGLLLLCFQGTRCDIQMTQTTSSLSASLGDRVTISCRASQDISNYLNWYQQKPDGPVKLLIYYTSRLHSGVPSRFSGSGSGTDYSLTINNLAQEDIATYFCQQGNTLPYTFGGGTKLEIK
# Test system: B16F10 melanoma cells
# Test: B16F10 experimental lung metastasis model
# Type: in vivo, mouse
# Procedure: FIG. 2. […] (A) The schematic and timeline of expanding MAIT cells from splenocytes derived from C57BL/6 WT mice with IL-2 and 5-OP-RU, for sorting and adoptive transfer into tumor-bearing mice. (B, C) Groups of WT or MR1^−/− or Rag2cγ^−/− mice (n=5-6/group) were injected i.v. with (B) 1×10^5 or (C) 1×10^4 B16F10 melanoma cells. In some groups, sorted MAIT or T conventional cells (cT) (non-MAIT αβ^+ T cells) (2×10^5 cells/mouse) from C57BL/6 (B) WT or (C) TCRδ^−/− mice were i.v. injected into the indicated groups of mice one day before tumor inoculation. (C) One group of mice received i.v injection of media alone as a control. (B, C) On day 14 relative to tumor cell inoculation, lungs were harvested and the metastatic burden was quantified by counting colonies on the lung surface. Data presented as mean±SEM. (D) B16F10 or LWT1 melanoma cells were stimulated in vitro with DMSO or 5-OP-RU (100 nM) for 4 hours before cell surface MR1 expression was determined by flow cytometry. Groups of C57BL/6 WT or MR1^−/− mice (n=5-6/group) were i.v. injected with (E) 1×10^5 B16F10 or (F) 5×10^5 LWT1 cells melanoma cells pulsed with DMSO or 5-OP-RU (100 nM, 4 hours). Fourteen days later relative to tumor cell inoculation, lungs were harvested and the metastatic burden was quantified by counting colonies on the lung surface. Data presented as mean±SEM. Experiments performed once for (B, C, F) and three times for (D, E) with one representative experiment shown. Significant differences between groups as indicated by crossbars were determined using a one-way ANOVA followed by Tukey's post-hoc test (B, E, F), *p<0.05, **p<0.01, ****p<0.0001
# FIG. 5. […] (A) Generation of three independent B16F10 cell lines knocked out for MR1 using three different MR1 sgRNA. […] Empty vector transfected B16F10 cells were used as a positive control. (B, C) Groups of C57BL/6 WT, MR1^−/− or Rag2cγ^−/− mice (n=5-6/group) were i.v. injected with either (B) 1×10^5 B16F10 vector control cells or the indicated clone of B16F10 cells lacking MR1 (sgR1, sgR2, sgR3) or (C) 1×10^4 B16F10-MR1^KO cells (sgR3 clone). On day 14 relative to tumor cell inoculation, lungs were harvested and the metastatic burden was quantified by counting colonies on the lung surface. Data presented as mean±SEM. (D) Re-expression of GFP or GFP-MR1 expressing vector into B16F10-MR1^KO (sgR3 clone). MR1 surface expressions of these cells stimulated with or without 5-OP-RU were assessed by flow cytometry. (E) Groups of C57BL/6 WT mice (n=6/group) were i.v. injected with 1×10^5 B16F10-MR1^KO (sgR3 clone) transfected with empty GFP-expressing vector or MR1-GFP-expressing vector. (F) Groups of C57BL/6 WT or MR1^−/− mice were i.v. injected with parental B16F10 cells treated with vehicle (dd H2O) or AC-6-FP (10 μM, 18 hours). On day 14 relative to tumor cell injection, lungs were harvested and the metastatic burden was quantified by counting colonies on the lung surface. Data presented as mean±SEM. Experiments performed twice for (A-E) and once for (F). Significant differences between groups as indicated by crossbars were determined by a one-way ANOVA followed by Tukey's post-hoc test (A, F), or a Mann-Whitney test (C, E), *p<0.05, **p<0.01, ****p<0.0001.
# FIG. 6. […] Groups of C57BL/6 WT or MR1^−/− mice (n=5-6/group) were i.v. injected with (A, B) 1×10^5 B16F10, (C) 1×10^5 parental B16F10 or 2×10^5 B16F10-MR1^KO (sgR3 clone) melanoma cells and (D) 5×10^5 LWT1 melanoma cells or s.c injected with (E) 1×10^6 MCA1956 fibrosarcoma or (F) 1×10^6 SM1WT1 melanoma cells on day 0.
Molecule,"number of lung metastases (MR1-/- mice i.v. injected with pre-treated B16F10, vs DMSO-treated, day 14)","number of lung metastases (WT mice i.v. injected with B16F10 pre-treated 100 nM 4 h, vs DMSO-treated, day 14)","number of lung metastases (B16F10 tumor-bearing MR1-/- mice, antibody vs cIg)","suppression of B16F10 lung metastases compared with the 26.5 clone (WT mice, 250 μg/mouse i.p.)","suppression of B16F10 lung metastases, three vs four doses (WT mice, 250 μg/mouse i.p., days -1, 0, 3 vs days -1, 0, 3 and 7)","B16F10-MR1 KO (sgR3) lung metastases numbers (WT mice, antibody vs cIg, days -1, 0 and 3)"
CC(=O)C=Nc1c(NC[C@H](O)[C@H](O)[C@H](O)CO)[nH]c(=O)[nH]c1=O [5-OP-RU],this increase was lost,significantly increased,,,,
B1,,,no further decrease,superior,equivalently reduced,not reduced
